According to patent US20240376151A1, “STAPLED PEPTIDES AND METHODS THEREOF” (FOG PHARMACEUTICALS, INC., priority 2022, published 2024):
Bridge positions count the residues as written; N and C are the ends.

Target: T1, RNF31 PUB domain (Homo sapiens, UniProt Q96EP0)
T1 construct: MBP-TEV (N, cleaved yes); made in house; host or cells: E. coli BL21 (DE3) pLysS
T1 sequence (Q96EP0 1-179): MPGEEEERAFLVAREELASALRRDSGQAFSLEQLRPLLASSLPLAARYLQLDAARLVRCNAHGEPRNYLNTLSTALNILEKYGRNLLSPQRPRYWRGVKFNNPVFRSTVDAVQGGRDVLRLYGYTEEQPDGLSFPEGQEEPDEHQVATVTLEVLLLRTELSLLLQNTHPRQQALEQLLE
Assay: Phage Library Screening with NGS, RNF31 PUB domain
Assay type: binding
Conditions: for Phage library screen NGS readout, Target Concentration 10 / Phage library screen NGS readout, Target Concentration 30 / Phage library screen NGS readout, Target Concentration 100 / Phage library screen NGS readout, Target Concentration 300 / Phage library screen NGS readout, Target Concentration 1000: RNF31 PUB domain clusters C41-C45; for Phage library screen NGS readout, BLANK: clusters C41-C45

[1] = target concentration 1000, first column
[2] = target concentration 1000, second column

Phage library screen NGS readout, Target Concentration 10 | Phage library screen NGS readout, Target Concentration 30 | Phage library screen NGS readout, Target Concentration 100 | Phage library screen NGS readout, Target Concentration 300 | Phage library screen NGS readout, Target Concentration 1000 [1] | Phage library screen NGS readout, Target Concentration 1000 [2] | Phage library screen NGS readout, BLANK (column 1 of 5) | Phage library screen NGS readout, BLANK (column 2 of 5) | Phage library screen NGS readout, BLANK (column 3 of 5) | Phage library screen NGS readout, BLANK (column 4 of 5) | Phage library screen NGS readout, BLANK (column 5 of 5) | Sequence
0 | 0 | 0 | 1 | 7 | 6 | 0 | 0 | 0 | 0 | 0 | DPAEDECDWAALYCDMQ
2 | 0 | 0 | 3 | 3 | 8 | 2 | 9 | 0 | 2 | 3 | DPAADDCEWAALYCSFH
0 | 0 | 0 | 2 | 7 | 7 | 0 | 0 | 0 | 1 | 0 | DPAIWECVSAAAVCMTY
0 | 1 | 0 | 2 | 14 | 5 | 0 | 0 | 0 | 0 | 0 | DPAWESCMYAAYDCDNE
0 | 1 | 0 | 1 | 6 | 6 | 0 | 0 | 0 | 0 | 0 | DPAMQDCQLAALVCTTY
0 | 1 | 0 | 2 | 10 | 15 | 0 | 4 | 0 | 0 | 0 | DPAWEHCLYAAYDCTHE
0 | 0 | 0 | 22 | 44 | 37 | 0 | 0 | 1 | 0 | 0 | DPAQDQCISAAVLCTYT
0 | 0 | 0 | 3 | 13 | 8 | 0 | 0 | 1 | 4 | 0 | DPAWQECVIAALVCDTY
1 | 3 | 3 | 3 | 7 | 8 | 2 | 2 | 0 | 0 | 0 | DPAIYQCSLAADICSTY
0 | 0 | 0 | 4 | 6 | 5 | 0 | 0 | 0 | 0 | 0 | DPAWMQCMYAAWDCNIE
0 | 0 | 0 | 7 | 22 | 20 | 0 | 0 | 0 | 0 | 0 | DPAIVQCAWAALYCDMQ (Ac-DPAIVQCAWAALYCDMQ-NH2; bridge 7-14; also: Cys-Cys staple, linker not named)
0 | 0 | 4 | 61 | 350 | 353 | 1 | 0 | 3 | 1 | 0 | DPARDWCLYAAYDCYTA (Ac-DPARDWCLYAAYDCYTA-NH2; not fully specified (bridges); cysteine pairing not given here)
0 | 1 | 0 | 0 | 5 | 6 | 0 | 1 | 1 | 4 | 2 | DPAYTLCSWAAMYCDSM
